The DeepSol protein solubility set

Assay: soluble on expression in E. coli; label from the status in PepcDB or PDB records
With “MIDTTVFQDKTAVYYTLGCKLNFSETSTIGKILREAGVRTARKGEKADLCIVNTCSVTEMADKKCRQAIHRLVKQHPGAFVVVTGCYAQLKPGDVAKIEGVDVVLGAEQKKDLLQYLGDLHKHEGGEAYTTATKDIRSFAPSCSRGDRTRFFLKVQDGCDYFCSYCTIPFARGRSRNGTIASLVEQARQAAAEGGKEIVLTGVNIGDFGKSTGETFFDLVKALDRVEGIERYRISSIEPNLLTDEIIEYVSRSRSFMPHFHIPLQSGSDEVLQLMRRRYGTELFASKIAKIKEVMPDVFIGVDVIVGTRGETAGYFEKAYEFIHGLDVTQLHVFSYSERPGTQALKIDHVVTPEEKHQRSQRLLALSDEKTKAFYARYIGQTMPVLMEKPKAGALMHGFTANYIRVEVESDAALDNKVVNVLLGDFNEEGTALKGTITQLEHHHHHH” the “soluble on expression in E. coli” value was “not soluble”. With “MIEAALENPVPIKSQLSPTPRYFGSCKWFNVSKGYGFVIDDITGEDLFVHQSNLNMQGFRSLDEGERVSYYIQERSNGKGREAYAVSGEVEGQGLKGSRIHPLGRKKAVSLRCFRCGKFATHKAKSCPNVKTDAKVCYTCGSEEHVSSICPERRRKHRPEQVAAEEAEAARMAAEKSSPTTSDDDIREKNSNSSDE” the “soluble on expression in E. coli” value was “soluble”. With “MIEFSDEDLQKPVRIVIEKIRPYLLKDGGNIEVLGVKSMKIYVALEGACKTCSSSKITLKNVIERQLKMDIHPNLEVVCLENAKEFDKL” the “soluble on expression in E. coli” value was “not soluble”. In the case of “MIEKVYCQEVKPELDGKKVRLAGWVYTNMRVGKKIFLWIRDSTGIVQAVVAKNVVGEETFEKAKKLGRESSVIVEGIVKADERAPGGAEVHVEKLEVIQAVSEFPIPENPEQASPELLLDYRHLHIRTPKASAIMKVKETLIMAAREWLLKDGWHEVFPPILVTGAVEGGATLFKLKYFDKYAYLSQSAQLYLEAAIFGLEKVWSLTPSFRAEKSRTRRHLTEFWHLELEAAWMDLWDIMKVEEELVSYMVQRTLELRKKEIEMFRDDLTTLKNTEPPFPRISYDEAIDILQSKGVNVEWGDDLGADEERVLTEEFDRPFFVYGYPKHIKAFYMKEDPNDPRKVLASDMLAPEGYGEIIGGSQREDDYDKLLNRILEEGMDPKDYEWYLDLRRYGSVPHSGFGLGVERLVAWVLKLDHIRWAALFPRTPARLYP”, the “soluble on expression in E. coli” value is reported as “soluble”. With “MIEYAALKFNVVSDPMSETAKKVIVGMSGGVDSSVSAWLLQQQGYQVEGLFMKNWEEDDGEEYCTAAADLADAQAVCDKLGIELHTVNFAAEYWDNVFELFLAEYKAGRTPNPDILCNKEIKFKAFLEFAAEDLGADYIATGHYVRRADVDGKSRLLRGLDSNKDQSYFLYTLSHEQIAQSLFPVGELEKPQVRKIAEDLGLVTAKKKDSTGICFIGERKFREFLGRYLPAQPGKIITVDGDEIGEHQGLMYHTLGQRKGLGIGGTKEGTEEPWYVVDKDVENNILVVAQGHEHPRLMSVGLIAQQLHWVDREPFTGTMRCTVKTRYRQTDIPCTVKALDDDRIKVIFDEPVAAVTPGQSAVFYNGEVCLGGGIIEQRLPLPVLEHHHHHH” the “soluble on expression in E. coli” value was “soluble”. In the case of “MIFLIVLKYPVSLNVIRKLKTGDVVYYTGKIVVMDRSVVDILEKYERYEGTKLYDLTGEIVVLGTFRKNKLQFQEMTEELLERLFLLGVNGVILERVRPFSATKRFSRVLFEPLEEIRGTRRVIYKTPDSKKLEELEVEKLVLRVVQDSSGKVYSKV”, the “soluble on expression in E. coli” value is reported as “not soluble”. In the case of “MIGKKSFQTNVYRMSKFDTYIFNNLYINDYKMFWIDSGIAKLIDKNCLVSYEINSSSIILLKKNSIQRFSLTSLSDENINVSVITISDSFIRSLKSYILGDLMIRNLYSENKDLLLWNCEHNDIAVLSEVVNGFREINYSDEFLKVFFSGFFSKVEKKYNSIFITDDLDAMEKISCLVKSDITRNWRWADICGELRTNRMILKKELESRGVKFRELINSIRISYSISLMKTGEFKIKQIAYQSGFASVSYFSTVFKSTMNVAPSEYLFMLTGVAEK”, the “soluble on expression in E. coli” value is reported as “soluble”. In the case of “MIIDCHGHYTTAPAAHDAFRKAQIAHHDDPQQPAPQYPHISDDALRESIEQHQLRLLRERGADMTIFSPRASTMAHHIGNEAVSQVWTQRCNDLIARVVQLYPHTFIGVCQLPQSPGVPISHSIAELERCVNELGFVGCNLNPDPSGGHWNGVPLTDRAWYPFFEKMVELDVPAMVHVSGSCNANFHATGAHYLNADTTAFMQFLEGDLFRDFPSLRFIIPHGGGAVPYHWGRFRGLADMLGKPPLATHVMRNVFFDTCVYHQPGIDLLFEVIDIDNILFGSEMVGAVRGIDPQTGHYFDDTKRYIDALTISDADKRKVFEGNARRVYPRLDAQLRARGLLEHHHHHH”, the “soluble on expression in E. coli” value is reported as “not soluble”. For “MIIDIHGHYTTAPKALEDWRNRQIAGIKDPSVMPKVSELKISDDELQASIIENQLKKMQERGSDLTVFSPRASFMAHHIGDFNVSSTWAAICNELCYRVSQLFPDNFIGAAMLPQSPGVDPKTCIPELEKCVKEYGFVAINLNPDPSGGHWTSPPLTDRIWYPIYEKMVELEIPAMIHVSTSCNTCFHTTGAHYLNADTTAFMQCVAGDLFKDFPELKFVIPHGGGAVPYHWGRFRGLAQEMKKPLLEDHVLNNIFFDTCVYHQPGIDLLNTVIPVDNVLFASEMIGAVRGIDPRTGFYYDDTKRYIEASTILTPEEKQQIYEGNARRVYPRLDAALKAKGKLEHHHHHH”, the “soluble on expression in E. coli” value was “soluble”. In the case of “MIIDINRLDRAFDLIKEGVSKGVFPGAVAAVGTRERVIRLESFGNRCLYPEKLSMNKDTLFDLASLTKVVATNTLFMIFLEKGLISVYDNVSYYLEKFKGKNKDDVTIFNLLTHTAGFVPCKPLYKLCKGYEDSIDYICRCGLSYKPGTKCVYSDFSYILLAYILEKIGGDTLDILCDRYIFKPLYMENTTFKPKGNNIAATEIDKKTKKPLIGVCHDENGRFFGGISGHAGLFSDIYDLCKFSNMLVNEGKGIISYASFKAMTTNHTLGLEDNRGYGWCIKGDKNSFMGDIAFPETFGHNGFTGTSLWVDIKNNIYAILLTNRVHPTRDNLRIIRFRRVFSNAVLASLTR”, the “soluble on expression in E. coli” value is reported as “not soluble”. In the case of “MIIKPAGDSAFLISFGDEISEEINDRVHSLAKAIEKESPEWLVELVPAYSSLLVIYDPLKASYEEVESYLKRISAREVERIKGKTIEIPVAYGGEFGPDIEFVAQYNGLSVDDVIEIHSKPLYRVYFLGFLPGFAYLGGMDERIATPRLEKPRLKVPAGSVGIAGKQTGWYAIESPGGWRIIGRIPLRTFNPGKVPPSIVLPGDYVKFVPIDEKEFWEIYGREWE”, the “soluble on expression in E. coli” value is reported as “soluble”. For “MIIQDIIEAIEAVCPRAYQESYDNSGVQVGDTKREATGALLCVDVTEAVLEEAIRLGCNLVIAHHPILFKPLKRLTGSSYVERCVELAVRHGLVLYAAHTNADNAPQGLNALLAERFGLLNTRPLEPLQGKLLELVTFVPTEYADAVRQALWQAGAGRLGHYDCCSFSHAGTGTFRAAEGANPFVGAISELHHEAEERISLVLPAYRQGTVLQALHAAHPYELPAVSLIPLANDHPSAGGGIVGDLPSPISEREMLLHIKEVFGLKVLSHSAWRERPLRRMAICGGSGAFMWRRAAQEGADLFLTGEAKYNDFFDAGEHLLLVTIGHYESEEVANELFMRIISQKFPTFATHKSSVATNPVNYL”, the “soluble on expression in E. coli” value was “not soluble”. In the case of “MIITIPIKNQKDIGTPSDSVVVLGYFDGIHKGHQELFRVANKAARKDLLPIVVMTFNESPKIALEPYHPDLFLHILNPAERERKLKREGVEELYLLDFSSQFASLTAQEFFATYIKAMNAKIIVAGFDYTFGSDKKTAEDLKNYFDGEVIIVPPVEDEKGKISSTRIRQAILDGNVKEAGKLLGAP”, the “soluble on expression in E. coli” value is reported as “not soluble”. In the case of “MIKLIATIIVSTLILGSCSTMKDEIEKVPASQYKGQDFQPLAEKSAIAHAKKYREEYEKLGEQFFKDNFSLNVKATNVVGSGDGAEVYVHCDDHDIVFNASIPFDMESIHEEGSMRSNDNGDTMSMMVGTVLSGFEYRANKEKMDNLEKYLKDKEDKYHYTGFTDEAITKTQNIGYQNNYFYITTSSTKLRDYRKHFEPLIKESDDDFKKHMKQLKSKKDTYINTEITTTLFSTLDEYDEKIIRKNTLSMAKEMRKEPSIPHNFTFHLLFSNNKLKINDPNISNNQINEYRVFDHDGFKNLEHHHHHH”, the “soluble on expression in E. coli” value is reported as “not soluble”. With “MIKLSNITKVFQQGTRTIQALNNVSLHVPAGQIYGVIGASGAGKSTLIRCVNLLERPTEGSVQVGGQELTTLSESELTKARRQIGMIFQHFNLLSSRTVFGNVALPLELDNTPKEEIKRRVTELLDLVGLGDKHDSYPANLSGGQKQRVAIARALASNPKVLLCDEATSALDPATTRSILELLKDINRRLGLTILLITHEMDVVKRICDCVAVISNGELIEQDTVSEVFSHPKTPLAQKFIQSTLHLDIPEDYQARLKASPETDSVPMLRMEFTGQSVDAPLLSETARRFNVNNNIISAQMDYAGGVKFGIMLTEMHGTQEETQAAIAWLQDHHVKVEVLGYV” the “soluble on expression in E. coli” value was “not soluble”. For “MIKPALLDKKIEKPHSWEDIPHGEWICELIQSRLDEWCPKLFGYHMLKIGGLSAELDSRFCNIKHQVNLDNKNSLRNITAELPQLPFLEKSIDACVLAHQLDYSSDPHQLLREIDRVLIGDGYVILTGFNPMSAIGLASLFPWRKNNLPWSGRMFTPHRIKDWLSVLNFEVVYSDCFALAPLTRYRTMWTWFEGLGGDAVKPISGIYFIVARKRTYPLRPIKSAWKKKPKLAPISVAQTRQGKMKSD”, the “soluble on expression in E. coli” value was “not soluble”. In the case of “MILDKKSYDLLSYLLKLETPETVMAISHALNQSRRKVYYQLDKINQALPKGVDQIISYPRLGILLTADQKAACRLLLEEVTDYNYVMKSDERRRLSSIYIAVSTERVTIDKLMQINDVSRNTILNDLTELREELEDKQYKIQLHATKARGYYFGCHPMALIQYLYKLLVDVYQGGNTSFIDIFNRKLSEIQGLSVYFSKDILTYFHEYLFLSQASLGKTINTQDSQFMLQILPFMLLSYRNMRLDSETKSALKQEFHLIWKRKEYHIAQDLARELYHNFKLHLDDIEVSMVAMLMLSFRKDQDHHVESQDYDDMRATISHFIDQLESRYQLHFTHKQDLLKRLTTHCKALVYRKAYGIFLVNPLTDHVKEKYEELFAMTQSCATILEQDWTISLTDDDIAYLTIHLGGELRHNNTEQEKTKLVIVSDDGIGIQKLLFKQCQRYLANGQIEAVFTTEQYQSVYDLLAVDMIVATTDTLKTKIPMLIVNPILSDDDIIKLIRFSKQGRLSEHSRFSTELTKAIEAVVKDESDRYALVSKIEKLIHRELL”, the “soluble on expression in E. coli” value is reported as “not soluble”. For “MILDRERTTGSLFERMEASSARNRQGGSIHSLRQSIRQNLRNILNTRSGSCRGAPELGIDEPEGAENFRESMSRAIEQCIERYEPRISHAEVQAVVSSASSPLDMTFHITAWVTFNETHEVLEFDMAPNGSQHYRVD”, the “soluble on expression in E. coli” value was “soluble”. For “MILHPRPSPIAAAMYQLRDIGVDAIILHGPSGCCFRTARLLEIDGIRVFTSAMGENDFIFGAMDKLRDVIAEVLEYLKKETPKSEKYKIGIVGTCASMIIGEDLESLIDDFDDIIIPVDIHSGLVDNTVGAIRAMDGALNAGLIDYSEYERQKKMLEHHHHHH”, the “soluble on expression in E. coli” value was “soluble”. With “MILLFGGTTEGRQAAALCDRLGLPFIYSTKTRVEPFATACGEFRHGALDEAALSELVSSSGVRLVIDAAHPFAARLHRSLFEVCQHLAVRLIRFDRPSVDVPDFEGLHSVADFTEALALLDRLNPAKLLALTGVQSIAPLRPWWEQHDMLLRILPTQASMELARREGIPEAQLLPMNPDSSDEALEKLVRKHGVDCLLAKESGESGFFSSKLRVAERCAIPLIVIRRPPAPAYDVVATSVEELEALLPD” the “soluble on expression in E. coli” value was “soluble”. With “MILRTSEETISTVQEKQQNISPLVRERGPQRVAAHITGTRGRSNTLSSPNSKNEKALGRKINSWESSRSGHSFLSNLHLRNGELVIHEKGFYYIYSQTYFRFQEEIKENTKNDKQMVQYIYKYTSYPAPILLMKSARNSCWSKDAEYGLYSIYQGGIFELKENDRIFVSVTNEHLIDMDHEASFFGAFLVG” the “soluble on expression in E. coli” value was “soluble”.
